Reference: the supplement of paper PMC9170038

What follows are sequences tested on K4 kissing-loop RNA reporter (assay: apparent KD of K4 kissing-loop reporter; higher = weaker reporter binding). Conditions: Eterna round: R107; input ligand: none.
Description: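 RNA-MaP round R107: designed RNA switches with theophylline, tryptophan, arginine or FMN aptamers are transcribed on-chip within common flanks. They are titrated with a labelled K4 kissing-loop RNA reporter in RNA-MaP buffer (100 mM Tris pH 7.5, 80 mM KCl, 4 mM MgCl2), without ligand or with the indicated ligand. Median apparent KD per design.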
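Further: bound reporter read as fluorescence of individual clusters on recovered sequencing chips by microscopy, with normalized cluster intensities fitted with a binding model.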

Sequence | apparent KD of K4 kissing-loop reporter
GCGGCCCAGCCGGAUACCAGUGACCCGCUGGGAACCGCGGGCCCAGAGUGAUGUUCGGGACACCCUUGGCAGCCGCCUGGGUCGC [#2 Same State - Theophylline B Attempt #18 (HarryS)] | 928 nM
AAUAUAGUGAUGUUAUAUAAGAAGGAGUUACGAGGACCGGUACGGCCGCCACUCGAAACGAGUGAGGGUUUGGGAGAUUGGGCCC [SSTryptA.J] | 451 nM
UGACUACAAAGGAAAUAAUCCUAGUGAUGUUAGGAUAUGCUGAUAAGCAGAAGGAACUGAGAUCGAAAGAUCUCAAAUGUAGUCU [FmnAX 26 Mat Inspired #SwitchBubble #StaticStem #K4Early] | 84.9 nM
GCGAAGUGAUGUUUCGCCAAUAUUUGAUGAAAGGAUAUCUACUUGAAGAGAAGGUUCAUAUGACUCAAUACCUGACUUGGACCCG [theeternabot_sameState_KL_FMN_A_37] | 81.4 nM
GGUUAAUAGGAGGAUACCAGUACGAAUAAAGUACAUUAAUAGUAGAGUGAUGUUCUAAAGUACCCUUGGCAGCUUAGAGUUAGUU [#19 K4 Theophylline B Exclusion] | 169 nM
CCGCGGCAAGCUCCGGAACCCAUAUUCGAUACCAGCCUUAUCACGGGCCCUUGGCAGCGAGCGUUAGUGAUGUUAGCGGCAUGGU [theeternabot_sameState_KL_Theo_A_27] | 311 nM
AAGCAGUCAGAGAGUGAUGUUCUCAAAUAACGAGGACCGGUACGGCCGCCACUCGAAGACUGCAAGUCCUACGAAAAGUAGGACA [Omei inspired 9] | 58.3 nM
CUUGUACAAGUGAUGUUUGUUAUAUCCGAAGGAGCGUCGUACUAGACAGGUAGGUCGCGGAUGAAGAUAGUUUUUUUAAUAUCAU [JR_Nu_SSArginiA_Sub028] | 761 nM
GGUCGAGUGAUGUUCGAUGUUAUGCAUUCAGAGGAUAUAGGAUUGGCUAGAAGGCUGAAUCGAUCUUCGAGUGAUGUUCGAGGAU [Same State FMN A GF 8] | 117 nM
AACUGUCGAGGACAACAUUACUGAGGUGAUACCAGCAUCGAAAGAUGCCCUUGGCAGCACCAACUUGCAGUGAUGUUGCAAGUAA [BrourdMod 9 - Jieux - Exclusion - Theophylline A] | 343 nM
ACCUUUUUUGCCAGUGAUGUUGGACAGGAAGGAGCGGGCAUAAGCCCAGGUAGGUCGCCUGUCAACUUUCUUAUAGCCCUAAGGU [KL-XArg-A17] | 507 nM
GUAAGACCGGGACUCCAGUGAUGUUGGAGGCAGGAUAUCCAGUCGAGGAGAAGGGCCAGGGAUAUCGAGCUGCUCGGUUUGUAGU [Argeis] | 93.6 nM
AAGUGAUGUUGUAGUGAUGUUGUGAUGUUGCAGGAUAUAUAGUGAUGUAGAAGGGUAUGUGCAGUUUUAUUUUUUGAGUGUUGAU [ttytmullin] | 54.8 nM
UGACAUUGCUCAGAUACCAGACCUGAGGAUCACCCAGGUGCCAAAACGUACUAAAUAAAGGUCCCUUGGCAGCUGAGCAAUGUCU [TheoBX 13] | 27.3 nM
AGAUUCGACACGGCCGCCACUUGUGGUGGAUUAUCCUAUGUCGAACAUGAGUGAUGUUCAUGUACAAGGACCGGGUGUUGAGUCU [KL-XTryp-B6 #analogue] | 421 nM
UUUACCAGUGAUGUUGGCCUAGUAUUUACACGAGGACCGGUACGGCCGCCACUCGCAUUAUCGGACUUUGAUAAGCAUAUUAUAU [theeternabot_sameState_KL_Trp_A_28] | 318 nM
GCAAAACAAACGUAGAGUGGAACACAGAGACGAGGACCGGUACGGCCGCCACUCGACGAGGUUUUCAGUGAUGUUGAAAAUUUAG [Exclusion Tryptophan A GF2] | 125 nM
GCGCGUCAUGUUGGCGGGAACUAAGCCGAUACCAGCCGGGAAACCGGCCCUUGGCAGCGGCGCGCCGGAGUGAUGUUCCGACAGA [#2 Exclusion - Theophylline A Attempt #1 (HarryS)] | 254 nM
UGAUAGGACAGAAGGAGCGGUAGUGAUGUUGCCAAAAGGUUAAGGUGUCAAAAGACACCCUACCAGGUAGGUCGCUGUCCUAUCU | 193 nM
GUUACGCAUGGAAGGAGCGCACUCCGGUUGAUCAACACAGUGAUGUUGUGGUUCAUUCGAAUGCAGGUAGGUCGCCAUGUGUAAC [Ex Arginine B K4 16] | 1100 nM
AUUUAUUACAGAAGGAGCGUGUAUUUAUAAUCAUUUAUCUUAGCGAGUGAUGUUCGCUUUACACAGGUAGGUCGCUGUUUAUUUA [JR_Nu_ExcArginiB_Sub027] | 120 nM

Same assay, conditions: Eterna round: R107; input ligand: theophylline 20 uM

Sequence | apparent KD of K4 kissing-loop reporter
GGCAGUGAUGUUGCCAGUGGCAGAUUAGAAGGAGCGUGGUGAGACACAGGUAGGUCGCUAAUUGAAAUUGCUGUCACUAAAAUGC [#6] | 368 nM
GUGAGGAGUGGUGUUGAUUAGGGAGCGGAAGGAGCGCCGAGGAAGGCAGGUAGGUCGCCGGAUUAUAGUGAUGUUAUGAAGAGGG [ExArg.K] | 886 nM
UGACUUGCCUGAGGAUAUCUAGGAUAUCCAUAAAAGAAAAUAAUAAUCCAGUGAUGUUGGAGAAGGAGAGAAGGCAGGUAAGUCU [KL-XFMN-B17 #DoubleAptamer #SwitchBubble] | 112 nM
CAGAACAUAUAUAGAAACUAUAUAUGAGAUACCAGUCAAAUUAAAGACCCUUGGCAGCUCAGGCGAGUGAUGUUCGCAGGCUAAC [Astros-Gfrank-modulation#2] | 122 nM
UGUAUGGACUGAAGGAGCGCUAGGUAUGUGAGUGAUGUUCAUAUAAAUGUAUAAAGGGUUUGGCAGGUAGGUCGCAGUCCAUACU [KL-SSArg B6] | 154 nM
AUCAGCCUCAGAAGGAGCGUGAGUUUUAAGAGGCUGGAGUGAUGUUCCAGACAUAACGACUCACAGGUAGGUCGCUGAGACUAGU [Arg B SS t1] | 98.5 nM
GGCCCGGGCGCGGCCGCCACUCCCUCGUACCGAAAGGUAUGAUACCGAGUGAUGUUCGGUUGGAGGAGGACCGGGCGCCCGGGCC [#2 Exclusion - Tryptophan B Attempt #4 (HarryS)] | 80.7 nM
GCCGUACGCAUGGAUACCAGUCUUUCACGACUGGGCAUGGAGUGAUGUUUCGUGAUGCUAGACCCUUGGCAGCCAUGCGUACGGC | 184 nM
UUUUUAUAAGAGGAUACCAGUACAAAUAAAGUACAUUAAUAGUAGAGUGAUGUUCUAAAGUACCCUUGGCAGCUUAGAUUAAGUU [ExTheophylB.D] | 255 nM
AGGCACGAGCAAGGAUAUUGAGUAGAGUGAUGUUCUGCCUAAGUUGGCUCGUAAGAGCCUUCUUAGCGAGAAGGUGCUCGUGCCU [#2 Same State - FMN A Attempt #27 (HarryS)] | 611 nM
UGAGGAGAAUAUGAUACCAGCAGAGAGAGAGAGGAAGUAUAGUGAUGUUAUAUGAGAGAAUGCCCUUGGCAGCAUAAGAAGAAGG [SSTheophylB.B] | 129 nM
GUACCUUGGAAACAAGGACAGCUCACCGAAGGAGCGCGUGAAAACGCAGGUAGGUCGCGGUAGCGGAGUGAUGUUCCGCGAGGGC [Same State Arginine A GF 20] | 112 nM
GCUCAGGAGUGAUGUUCCAAGUGAUGUUAACGAGGACCGGUACGGCCGCCACUCGAUACGGCCGGACCGUAAGAUAAACUAGAGC [Same State - Tryptophan A (Freestyle 8)] | 380 nM
AAUAAUGAUGUUUAGGAUUUCCGAAUGGAAGGAGCGUGCGAAAGCACAGGUAGGUCGCCAGUGAUGUUGGGACCUGAGCAUCAAA [#SwitchBubble 6 #K4Late] | 807 nM
GAUUGAGGAAACUCGAUCUUAUAUCCUAGGCAGGAUAUGCGGAAACGCAGAAGGGCCACCUAGCAGUGAUGUUGCAAGCGAAAGC [Ex FMN A 5] | 471 nM
UUCUACGUGCAAGGAUAUCCAUACGCUGCCCAGCGGGUAGCGAUAUAUGGAGUGAUGUUCCAUGUAGGAGAAGGUGCACUGUCCU [Atrea] | 466 nM

Sequence | apparent KD of K4 kissing-loop reporter
UUAGAGAUCUCAGGAUAUCAGUGAUGUUGGUGUGAAGAUCUGAGAUAGAAUUCUAUCUCAGAUCAAUGAGAAGGGAGAUCUCAUU [AK3.1 Exc FMN B] | 181 nM
CGCAGUGAUGUUGCUAUUAUUCUUGAUUAACGAGGACCGGUACGGCCGCCACUCGAUUUCUAUCUUAUUUUGUGUUAUGUUGAUU [JR_ExcTryptoA_Sub008] | 417 nM
GUAGCCCUAUGUGAUACCAGACGGUAUAAAAUCCUGGCGGCCAGUGAUGUUGGCCAUCGCGUCCCUUGGCAGCACCAAGGCUGUA [theeternabot_sameState_KL_Theo_B_18] | 118 nM
CAACUACCCGGAAGGAGCGCGGGUGUAAAUCAAAGGGCUUGAGUGAUGUUCAAGCGGAACCCGCAGGUAGGUCGCCGGGAAGCCC [Quaneson] | 114 nM
UCCUGUUGUCAGCCACGAAAGUGGAUUGAUACCAGAGUCGAAAGACUCCCUUGGCAGCGAGUGAUGUUCGCAGCAGGUAAAUAAA [MatMod 4 - Jieux - Exclusion - Theophylline A] | 207 nM
GCGGCCCAGCCGGAUACCAGUGACCCGCUGGGAACCGCGGGCCCAGAGUGAUGUUCGGGACACCCUUGGCAGCCGCCUGGGUCGC [#2 Same State - Theophylline B Attempt #18 (HarryS)] | 684 nM
AAUAUAGUGAUGUUAUAUAAGAAGGAGUUACGAGGACCGGUACGGCCGCCACUCGAAACGAGUGAGGGUUUGGGAGAUUGGGCCC [SSTryptA.J] | 322 nM
UGACUACAAAGGAAAUAAUCCUAGUGAUGUUAGGAUAUGCUGAUAAGCAGAAGGAACUGAGAUCGAAAGAUCUCAAAUGUAGUCU [FmnAX 26 Mat Inspired #SwitchBubble #StaticStem #K4Early] | 96.6 nM
GCGAAGUGAUGUUUCGCCAAUAUUUGAUGAAAGGAUAUCUACUUGAAGAGAAGGUUCAUAUGACUCAAUACCUGACUUGGACCCG [theeternabot_sameState_KL_FMN_A_37] | 82.9 nM
GGUUAAUAGGAGGAUACCAGUACGAAUAAAGUACAUUAAUAGUAGAGUGAUGUUCUAAAGUACCCUUGGCAGCUUAGAGUUAGUU [#19 K4 Theophylline B Exclusion] | 257 nM
CCGCGGCAAGCUCCGGAACCCAUAUUCGAUACCAGCCUUAUCACGGGCCCUUGGCAGCGAGCGUUAGUGAUGUUAGCGGCAUGGU [theeternabot_sameState_KL_Theo_A_27] | 276 nM
AAGCAGUCAGAGAGUGAUGUUCUCAAAUAACGAGGACCGGUACGGCCGCCACUCGAAGACUGCAAGUCCUACGAAAAGUAGGACA [Omei inspired 9] | 136 nM
CUUGUACAAGUGAUGUUUGUUAUAUCCGAAGGAGCGUCGUACUAGACAGGUAGGUCGCGGAUGAAGAUAGUUUUUUUAAUAUCAU [JR_Nu_SSArginiA_Sub028] | 648 nM
GGUCGAGUGAUGUUCGAUGUUAUGCAUUCAGAGGAUAUAGGAUUGGCUAGAAGGCUGAAUCGAUCUUCGAGUGAUGUUCGAGGAU [Same State FMN A GF 8] | 101 nM
AACUGUCGAGGACAACAUUACUGAGGUGAUACCAGCAUCGAAAGAUGCCCUUGGCAGCACCAACUUGCAGUGAUGUUGCAAGUAA [BrourdMod 9 - Jieux - Exclusion - Theophylline A] | 473 nM
